Data on five molecules can be found in paper PMC10699557 (2023).

In general, Kd refers to the constant that tells how readily two partners part at equilibrium. A higher Kd goes with weaker binding.

Numbered stars: 1 amine (or outer) side, 2 acyl side, 3 side chain; on linkers, the order of the positions; unused ones are H or OH. Bridge positions count the residues as written; N and C are the ends. Primed or numbered codes have the meaning given here. Ends that are not written are not given here. DVP = divinylpyrimidine, c1nc(CC[*:1])cc(CC[*:2])n1; DVT″ = divinyltriazine

In experiment [1] the target is HumRadA22. As to the kind of experiment: ITC. Background: Isothermal titration calorimetry measures the heat released or taken up as one component is titrated into another.
In experiment [2] the target is HumRadA22. As to the kind of experiment: ITC. This is another data set of the same source.
Experiment [3] has as its target HumRadA22. As to the kind of experiment: FP.

RRRRRRRRRGCSGFSTASGKKLNVSTQACQKAVKLFSG (stapled (linker not stated for SP31)) [SP31] registered a Kd in experiment [1] of 44 nM.
In experiment [2], VNSSAFSGFSTASGKKLNVSTEALQKAVKLFSDIENIS [BRC8-2 template] gave an equilibrium dissociation constant (Kd) of 4 nM.
As for GFSGFSTASGKKLNVSCQALQKACKLFSG (linker 17-24 via DVP) [SP24, tag-free, stapled with DVP], the Kd in experiment [2] turned out to be 21 nM; in experiment [3], 13 nM.
In the case of GCSGFSTASGKKLNVSTQACQKAVKLFSG (linker 2-20 via DVP (inferred)) [SP30, tag-free, stapled with DVP], the Kd came out at 26 nM in experiment [2] and 13 nM in experiment [3].
Turning to GSVNSSAFSGFSTASGKKLNVSCEALQKACKLFSDI (linker 23-30 via DVT″) [SP2, tag-free, stapled with DVT], the affinity in experiment [2], expressed as Kd, was 17 nM.
